This note sets out measurements from article doi:10.1101/2020.09.27.316166.

Data set [1] deals with T1, FL-hcGAS (human cyclic GMP-AMP synthase) (human, UniProt Q8N884 1-522). In words: phase separation microscopy.
In data set [2] the target is T1, FL-hcGAS (human cyclic GMP-AMP synthase). In words: phase separation microscopy. The source holds these as a separate data set.

Where two headings read alike, the source gives them in different places.

T1 sequence (Q8N884 whole entry): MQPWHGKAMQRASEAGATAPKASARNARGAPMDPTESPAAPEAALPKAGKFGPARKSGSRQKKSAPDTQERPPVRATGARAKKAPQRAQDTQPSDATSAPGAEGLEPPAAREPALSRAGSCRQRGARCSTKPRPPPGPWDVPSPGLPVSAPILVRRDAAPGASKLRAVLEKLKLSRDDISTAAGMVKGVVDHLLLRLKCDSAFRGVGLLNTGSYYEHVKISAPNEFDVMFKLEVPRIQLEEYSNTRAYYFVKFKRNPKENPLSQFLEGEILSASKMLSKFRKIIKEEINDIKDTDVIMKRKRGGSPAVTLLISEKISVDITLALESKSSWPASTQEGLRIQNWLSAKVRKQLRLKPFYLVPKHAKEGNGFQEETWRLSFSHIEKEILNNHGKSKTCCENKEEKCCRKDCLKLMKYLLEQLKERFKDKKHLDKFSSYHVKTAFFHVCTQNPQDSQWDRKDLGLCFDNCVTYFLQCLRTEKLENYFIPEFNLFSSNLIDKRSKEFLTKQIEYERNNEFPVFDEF

B1: ISD (interferon stimulatory DNA, 45 bp) (dsDNA)
DNA 1: TACAGATCTACTAGTGATCTATGACTGATCTGTACATGATCTACA
DNA 2: TGTAGATCATGTACAGATCAGTCATAGATCACTAGTAGATCTGTA
For the molecule B1, the binding result in data set [1] is recorded as “binds”.

B2: 48 nt ssDNA (AG repeat) (ssDNA)
DNA: AGAGAGAGAGAGAGAGAGAGAGAGAGAGAGAGAGAGAGAGAGAGAGAG
As for B2, the binding result in data set [2] is “binds”.
